The values below come from paper PMC7375243, “Structural Basis of Human Helicase DDX21 in RNA Binding, Unwinding, and Antiviral Signal Activation” (Advanced Science, 2020).

Data set [1] deals with the molecule itself. Kind of data set: SEC; gel filtration of DDX21 del-C (1-710) and del-NC (188-710), data not shown; final SEC buffer of del-C with 200 mM NaCl. (In general: SEC sorts molecules by how far they enter the pores of the column.)
The target in the next data set is T1, DDX21 full-length (human, UniProt Q9NR30 1-783).
T1 sequence: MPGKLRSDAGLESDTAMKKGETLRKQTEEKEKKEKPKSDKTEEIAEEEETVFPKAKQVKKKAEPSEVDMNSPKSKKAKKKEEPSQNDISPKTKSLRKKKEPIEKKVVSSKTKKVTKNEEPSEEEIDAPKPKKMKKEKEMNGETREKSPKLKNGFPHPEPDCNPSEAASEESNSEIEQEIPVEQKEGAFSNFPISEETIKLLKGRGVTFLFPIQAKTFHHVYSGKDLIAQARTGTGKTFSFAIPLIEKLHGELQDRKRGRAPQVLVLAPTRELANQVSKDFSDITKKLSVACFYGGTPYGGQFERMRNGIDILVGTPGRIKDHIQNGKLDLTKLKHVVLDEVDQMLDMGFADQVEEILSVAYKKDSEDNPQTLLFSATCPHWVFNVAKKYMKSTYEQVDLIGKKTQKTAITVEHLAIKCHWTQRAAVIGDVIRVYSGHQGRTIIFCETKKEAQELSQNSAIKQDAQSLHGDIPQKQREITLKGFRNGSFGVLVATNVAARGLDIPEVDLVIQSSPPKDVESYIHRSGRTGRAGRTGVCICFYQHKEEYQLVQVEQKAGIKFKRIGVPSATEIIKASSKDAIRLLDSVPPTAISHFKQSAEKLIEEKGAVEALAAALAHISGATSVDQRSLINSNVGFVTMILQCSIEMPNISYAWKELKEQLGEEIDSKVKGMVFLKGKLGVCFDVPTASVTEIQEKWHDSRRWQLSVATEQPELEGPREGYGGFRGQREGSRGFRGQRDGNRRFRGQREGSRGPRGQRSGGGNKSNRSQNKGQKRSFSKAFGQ
Description: UV crosslinking/MST/SEC (method for this pair not specified); MST: 50 mM Tris pH 7.5, 50 mM KCl, 2 mM MgCl2, 1 mM TCEP, 0.01% NP-40, 0.05 mg/mL BSA, 2 mM AMPPNP, 50 nM FAM-RNA; temperature not given; crosslinking buffer not in material. The note with it: protein: recombinant; tags: N-terminal His-SUMO, removed by ULP1; chain copies: 3; single strand.

For data set [2], the target named is T2, DDX21 helicase core (D1D2, DDX21-delNC) (human, UniProt Q9NR30 188-563).
T2 sequence: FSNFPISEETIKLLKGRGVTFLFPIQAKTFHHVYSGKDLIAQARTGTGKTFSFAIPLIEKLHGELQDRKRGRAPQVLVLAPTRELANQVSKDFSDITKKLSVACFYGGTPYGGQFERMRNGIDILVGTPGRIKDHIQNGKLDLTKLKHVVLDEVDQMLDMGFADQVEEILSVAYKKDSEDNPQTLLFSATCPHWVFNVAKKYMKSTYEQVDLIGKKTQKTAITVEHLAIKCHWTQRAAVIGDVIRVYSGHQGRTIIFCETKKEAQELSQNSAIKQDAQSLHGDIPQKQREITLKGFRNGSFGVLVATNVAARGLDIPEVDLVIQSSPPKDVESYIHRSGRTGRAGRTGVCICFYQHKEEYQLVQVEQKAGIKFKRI
Description: crystal structure; AMPPNP, Mg2+; 2.24 A, 7 nt visible; MST: 50 mM Tris pH 7.5, 50 mM KCl, 2 mM MgCl2, 1 mM TCEP, 0.01% NP-40, 0.05 mg/mL BSA, 2 mM AMPPNP, 50 nM FAM-RNA; temperature not given; crosslinking buffer not in material. The note with it: protein: recombinant; tags: N-terminal His-SUMO, removed by ULP1; single strand.

Data set [3] concerns the molecule itself. Kind of data set: SAXS; beamline BL19U2, 1-3 mg/mL protein; 20 mM Tris-HCl pH 7.5, 1 mM TCEP, 100 mM NaCl for DDX21 (188-563), 500 mM NaCl for DDX21 (1-783); ab initio envelopes (GASBOR).

B1: DDX21 del-C (1-710) (domain or fragment, human, UniProt Q9NR30-1 1-710, looked up)
chain: MPGKLRSDAGLESDTAMKKGETLRKQTEEKEKKEKPKSDKTEEIAEEEETVFPKAKQVKKKAEPSEVDMNSPKSKKAKKKEEPSQNDISPKTKSLRKKKEPIEKKVVSSKTKKVTKNEEPSEEEIDAPKPKKMKKEKEMNGETREKSPKLKNGFPHPEPDCNPSEAASEESNSEIEQEIPVEQKEGAFSNFPISEETIKLLKGRGVTFLFPIQAKTFHHVYSGKDLIAQARTGTGKTFSFAIPLIEKLHGELQDRKRGRAPQVLVLAPTRELANQVSKDFSDITKKLSVACFYGGTPYGGQFERMRNGIDILVGTPGRIKDHIQNGKLDLTKLKHVVLDEVDQMLDMGFADQVEEILSVAYKKDSEDNPQTLLFSATCPHWVFNVAKKYMKSTYEQVDLIGKKTQKTAITVEHLAIKCHWTQRAAVIGDVIRVYSGHQGRTIIFCETKKEAQELSQNSAIKQDAQSLHGDIPQKQREITLKGFRNGSFGVLVATNVAARGLDIPEVDLVIQSSPPKDVESYIHRSGRTGRAGRTGVCICFYQHKEEYQLVQVEQKAGIKFKRIGVPSATEIIKASSKDAIRLLDSVPPTAISHFKQSAEKLIEEKGAVEALAAALAHISGATSVDQRSLINSNVGFVTMILQCSIEMPNISYAWKELKEQLGEEIDSKVKGMVFLKGKLGVCFDVPTASVTEIQEKWHDSRRWQLSVATE
notes: human DDX21, residues 1-710; source: E. coli BL21-CodonPlus (DE3)-RIL, purified (Ni-NTA, ULP1 cleavage, Ni-NTA, Superdex 200); not shown: His-sumo, N-terminal, cleaved
As for B1, the stoichiometry N (in general, the number of molecules, sites or subunits per partner or assembly) in data set [1] was found to be 5.

B2: DDX21 del-NC (188-710) (domain or fragment, human, UniProt Q9NR30-1 188-710, looked up)
chain: FSNFPISEETIKLLKGRGVTFLFPIQAKTFHHVYSGKDLIAQARTGTGKTFSFAIPLIEKLHGELQDRKRGRAPQVLVLAPTRELANQVSKDFSDITKKLSVACFYGGTPYGGQFERMRNGIDILVGTPGRIKDHIQNGKLDLTKLKHVVLDEVDQMLDMGFADQVEEILSVAYKKDSEDNPQTLLFSATCPHWVFNVAKKYMKSTYEQVDLIGKKTQKTAITVEHLAIKCHWTQRAAVIGDVIRVYSGHQGRTIIFCETKKEAQELSQNSAIKQDAQSLHGDIPQKQREITLKGFRNGSFGVLVATNVAARGLDIPEVDLVIQSSPPKDVESYIHRSGRTGRAGRTGVCICFYQHKEEYQLVQVEQKAGIKFKRIGVPSATEIIKASSKDAIRLLDSVPPTAISHFKQSAEKLIEEKGAVEALAAALAHISGATSVDQRSLINSNVGFVTMILQCSIEMPNISYAWKELKEQLGEEIDSKVKGMVFLKGKLGVCFDVPTASVTEIQEKWHDSRRWQLSVATE
notes: human DDX21, residues 188-710
Turning to B2, in data set [1], the “stoichiometry N” value was 2.
As for UUUUUUUUUUUUUUU (ssRNA) [U15], the binding result (with DDX21 full-length; in data set [2]) was “binds” in each case.

B3: full-length DDX21 (1-783) (enzyme, human, UniProt Q9NR30-1 1-783, looked up)
chain: MPGKLRSDAGLESDTAMKKGETLRKQTEEKEKKEKPKSDKTEEIAEEEETVFPKAKQVKKKAEPSEVDMNSPKSKKAKKKEEPSQNDISPKTKSLRKKKEPIEKKVVSSKTKKVTKNEEPSEEEIDAPKPKKMKKEKEMNGETREKSPKLKNGFPHPEPDCNPSEAASEESNSEIEQEIPVEQKEGAFSNFPISEETIKLLKGRGVTFLFPIQAKTFHHVYSGKDLIAQARTGTGKTFSFAIPLIEKLHGELQDRKRGRAPQVLVLAPTRELANQVSKDFSDITKKLSVACFYGGTPYGGQFERMRNGIDILVGTPGRIKDHIQNGKLDLTKLKHVVLDEVDQMLDMGFADQVEEILSVAYKKDSEDNPQTLLFSATCPHWVFNVAKKYMKSTYEQVDLIGKKTQKTAITVEHLAIKCHWTQRAAVIGDVIRVYSGHQGRTIIFCETKKEAQELSQNSAIKQDAQSLHGDIPQKQREITLKGFRNGSFGVLVATNVAARGLDIPEVDLVIQSSPPKDVESYIHRSGRTGRAGRTGVCICFYQHKEEYQLVQVEQKAGIKFKRIGVPSATEIIKASSKDAIRLLDSVPPTAISHFKQSAEKLIEEKGAVEALAAALAHISGATSVDQRSLINSNVGFVTMILQCSIEMPNISYAWKELKEQLGEEIDSKVKGMVFLKGKLGVCFDVPTASVTEIQEKWHDSRRWQLSVATEQPELEGPREGYGGFRGQREGSRGFRGQRDGNRRFRGQREGSRGPRGQRSGGGNKSNRSQNKGQKRSFSKAFGQ
notes: human DDX21, residues 1-783, codon-optimised synthetic gene; The text says it might be a trimer (SAXS, gel filtration); also called WT DDX21; RNA helicase DDX21; source: E. coli BL21-CodonPlus (DE3)-RIL, purified (Ni-NTA, ULP1 cleavage, Ni-NTA, Superdex 200); not shown: His-sumo, N-terminal, cleaved
Take B3: the “stoichiometry N” value in data set [3] turned out to be 3.
